The target of assay [1] is HVEM stably expressed on B78-H1-A10 cells (UniProt Q92956). Description: cell-based or functional assay.
The target in assay [2] is nectin-1 stably expressed on B78-H1-C10 cells (UniProt Q15223). As to the kind of experiment: cell-based or functional assay.
Sequence of UniProt Q15223 (Q15223 31-517 limits assumed): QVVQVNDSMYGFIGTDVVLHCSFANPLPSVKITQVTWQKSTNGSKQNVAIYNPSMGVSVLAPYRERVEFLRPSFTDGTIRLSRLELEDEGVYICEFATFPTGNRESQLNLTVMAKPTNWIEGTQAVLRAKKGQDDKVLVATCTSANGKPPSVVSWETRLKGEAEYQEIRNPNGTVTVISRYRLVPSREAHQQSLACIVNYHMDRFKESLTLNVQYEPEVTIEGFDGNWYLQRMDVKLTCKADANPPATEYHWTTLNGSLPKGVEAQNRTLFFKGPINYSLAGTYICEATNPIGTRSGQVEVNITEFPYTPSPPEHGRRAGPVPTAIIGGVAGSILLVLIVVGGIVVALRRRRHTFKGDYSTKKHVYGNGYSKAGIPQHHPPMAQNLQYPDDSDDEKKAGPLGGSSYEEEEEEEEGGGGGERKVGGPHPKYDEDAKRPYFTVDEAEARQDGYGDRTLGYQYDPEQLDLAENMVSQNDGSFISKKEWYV

Sequence of UniProt Q92956 (Q92956 39-283 limits assumed): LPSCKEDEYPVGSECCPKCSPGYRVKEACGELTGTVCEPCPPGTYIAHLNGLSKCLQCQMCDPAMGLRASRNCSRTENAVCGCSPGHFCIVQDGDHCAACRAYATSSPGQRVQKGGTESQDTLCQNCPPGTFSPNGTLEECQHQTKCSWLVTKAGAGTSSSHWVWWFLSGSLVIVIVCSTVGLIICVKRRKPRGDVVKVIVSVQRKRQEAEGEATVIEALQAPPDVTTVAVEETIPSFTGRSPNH

Take “HSV-1 strain KOS glycoprotein D with the A3C mutation, as carried by the KOS-gDA3C virus (from UniProt A1Z0Q5 26-394)”: the entry of virus into A10 cells (plaques counted after citrate wash) in assay [1] was found to be 50 % reduction. This substance showed an entry of virus into C10 cells (plaques counted after citrate wash) in assay [2] of 70 % reduction.
